According to article PMC3783180 (Nucleic Acids Research, 2013):
Blank lines part the entries; values can stand above or below the binder they belong to.

Columns and labels:
[1] = molecular target: T1, S. cerevisiae Dhh1 residues 46-422 K234D, V238D (S. cerevisiae, UniProt P39517 46-422, K234D | V238D); assay: crystal structure
T1 sequence: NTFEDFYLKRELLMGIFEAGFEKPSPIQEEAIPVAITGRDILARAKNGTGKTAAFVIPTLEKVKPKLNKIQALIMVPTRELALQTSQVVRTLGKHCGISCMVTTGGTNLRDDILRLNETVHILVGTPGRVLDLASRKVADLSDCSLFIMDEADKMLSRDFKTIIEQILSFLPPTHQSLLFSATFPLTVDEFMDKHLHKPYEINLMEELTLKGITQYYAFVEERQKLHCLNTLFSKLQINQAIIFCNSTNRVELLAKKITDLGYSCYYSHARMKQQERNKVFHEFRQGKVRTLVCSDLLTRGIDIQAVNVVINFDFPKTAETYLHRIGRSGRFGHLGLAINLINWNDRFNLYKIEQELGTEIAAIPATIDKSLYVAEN

[2] = molecular target: T2, S. cerevisiae Dhh1 residues 251-425 (RecA2 domain) (S. cerevisiae, UniProt P39517 251-425); assay: ITC
T2 sequence: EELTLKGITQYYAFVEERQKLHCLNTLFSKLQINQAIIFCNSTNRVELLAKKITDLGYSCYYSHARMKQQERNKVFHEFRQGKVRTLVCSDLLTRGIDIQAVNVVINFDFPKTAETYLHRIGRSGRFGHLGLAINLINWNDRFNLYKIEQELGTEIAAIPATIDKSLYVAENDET

[3] = molecular target: T3, S. cerevisiae Dhh1 residues 30-425 (DEAD-box core, RecA1 and RecA2) (S. cerevisiae, UniProt P39517 30-425); assay: pull-down
T3 sequence: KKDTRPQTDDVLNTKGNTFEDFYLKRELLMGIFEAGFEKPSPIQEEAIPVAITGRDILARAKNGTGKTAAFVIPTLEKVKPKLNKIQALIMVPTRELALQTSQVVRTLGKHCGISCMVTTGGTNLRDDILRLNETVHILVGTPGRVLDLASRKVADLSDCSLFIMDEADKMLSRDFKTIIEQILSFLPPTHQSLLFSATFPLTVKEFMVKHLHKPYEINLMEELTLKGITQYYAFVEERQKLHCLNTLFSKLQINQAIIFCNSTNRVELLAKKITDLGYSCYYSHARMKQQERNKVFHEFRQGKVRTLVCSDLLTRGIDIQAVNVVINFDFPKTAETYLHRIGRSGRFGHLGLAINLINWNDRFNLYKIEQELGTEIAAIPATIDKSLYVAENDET

[4] = molecular target: T3, S. cerevisiae Dhh1 residues 30-425 …; assay: ITC
[5] = molecular target: T3, S. cerevisiae Dhh1 residues 30-425 …; assay: SEC

B1: S. cerevisiae Pat1 residues 5-79, as crystallized (domain or fragment)
chain: GLENSGNARDGPLDFEESYKGYGEHELEENDYLNDETFGDNVQVGTDFDFGNPHSSGSSGNAIGGNGVGATARSY
binding result [1]: binds

B2: His6-SUMO-tagged S. cerevisiae Pat1 residues 5-79 (domain or fragment)
chain: GLENSGNARDGPLDFEESYKGYGEHELEENDYLNDETFGDNVQVGTDFDFGNPHSSGSSGNAIGGNGVGATARSY
Kd [2]: 32 nM

Binder: QQNDYNQNRGEHIDWQDDDVSKIKQQEDFDFQRNLGMFNK (domain or fragment) [S. cerevisiae Edc3 residues 77-116, as crystallized]
binding result [1]: binds

B5: GST-tagged S. cerevisiae Pat1 residues 1-114 (N-terminal domain) (domain or fragment)
chain: MSFFGLENSGNARDGPLDFEESYKGYGEHELEENDYLNDETFGDNVQVGTDFDFGNPHSSGSSGNAIGGNGVGATARSYVAATAEGISGPRTDGTAAAGPLDLKPMESLWSTAP
binding result [3]: binds

Other lines, results leading:

binding result [3]: binds
B3: GST-tagged S. cerevisiae Pat1 residues 1-56 (domain or fragment)
chain: MSFFGLENSGNARDGPLDFEESYKGYGEHELEENDYLNDETFGDNVQVGTDFDFGN

Kd [4]: 200 nM
B4: S. cerevisiae Edc3 residues 77-158, as used for ITC (domain or fragment)
chain: QQNDYNQNRGEHIDWQDDDVSKIKQQEDFDFQRNLGMFNKKDVFAQLKQNDDILPENRLQGHNRKQTQLQQNNYQNDELVIP

binding result [5]: binds
B6: S. cerevisiae Pat1 residues 1-114, as in the purified complex with Dhh1 30-425 used for limited proteolysis (domain or fragment)
chain: MSFFGLENSGNARDGPLDFEESYKGYGEHELEENDYLNDETFGDNVQVGTDFDFGNPHSSGSSGNAIGGNGVGATARSYVAATAEGISGPRTDGTAAAGPLDLKPMESLWSTAP
